Laboratory results from paper PMC9456337.

Key:
[1] = biological target: thiocyanate dehydrogenase (TcDH) from Thioalkalivibrio paradoxus ARh 1 (Thioalkalivibrio paradoxus ARh 1)
[2] = biological target: thiocyanate dehydrogenase (TcDH) from Thioalkalivibrio paradoxus ARh 1 (Thioalkalivibrio paradoxus ARh 1); assay: ITC; aliquots (2.6 µL) of CytC552 injected into a 0.2-mL cell with 9.3 µM TcDH; 25 °C; 25 mM borate buffer, pH 9.5; fitted assuming either one or two binding sites of CytC552 in the TcDH dimer
[3] = biological target: recombinant cytochrome c552 (CytC552) from Thioalkalivibrio paradoxus (Thioalkalivibrio paradoxus ARh 1); assay: NMR titration; oxidized 13C/15N-labelled CytC552 titrated with TcDH; intensity of the 1H signal of the heme HAB atom fitted with the Morrison equation; 1H/15N-HSQC chemical shift perturbation at saturating TcDH; slow exchange; 50 mM sodium phosphate, pH 7.0, 303 K

specific activity of TcDH in thiocyanate oxidation with CytC552 as electron acceptor, pH optimum 9.5 [1] [µmol/min/mg] | Kd [2] [nM] | Kd [3] [nM] | stoichiometry N [3] | Substance
7.3 | 1800 | – | – | recombinant cytochrome c552 (CytC552) from Thioalkalivibrio paradoxus (natural protein)
– | – | 2000 | 1 | thiocyanate dehydrogenase (TcDH) from Thioalkalivibrio paradoxus ARh 1 (enzyme)
